Data from publication PMC10786891, “Massively parallel profiling of RNA-targeting CRISPR-Cas13d”.

Biological target: T1, EsCas13d, nuclease-dead (Eubacterium siraeum, UniProt B0MS50, R295A;H300A;R849A;H854A)
T1 sequence: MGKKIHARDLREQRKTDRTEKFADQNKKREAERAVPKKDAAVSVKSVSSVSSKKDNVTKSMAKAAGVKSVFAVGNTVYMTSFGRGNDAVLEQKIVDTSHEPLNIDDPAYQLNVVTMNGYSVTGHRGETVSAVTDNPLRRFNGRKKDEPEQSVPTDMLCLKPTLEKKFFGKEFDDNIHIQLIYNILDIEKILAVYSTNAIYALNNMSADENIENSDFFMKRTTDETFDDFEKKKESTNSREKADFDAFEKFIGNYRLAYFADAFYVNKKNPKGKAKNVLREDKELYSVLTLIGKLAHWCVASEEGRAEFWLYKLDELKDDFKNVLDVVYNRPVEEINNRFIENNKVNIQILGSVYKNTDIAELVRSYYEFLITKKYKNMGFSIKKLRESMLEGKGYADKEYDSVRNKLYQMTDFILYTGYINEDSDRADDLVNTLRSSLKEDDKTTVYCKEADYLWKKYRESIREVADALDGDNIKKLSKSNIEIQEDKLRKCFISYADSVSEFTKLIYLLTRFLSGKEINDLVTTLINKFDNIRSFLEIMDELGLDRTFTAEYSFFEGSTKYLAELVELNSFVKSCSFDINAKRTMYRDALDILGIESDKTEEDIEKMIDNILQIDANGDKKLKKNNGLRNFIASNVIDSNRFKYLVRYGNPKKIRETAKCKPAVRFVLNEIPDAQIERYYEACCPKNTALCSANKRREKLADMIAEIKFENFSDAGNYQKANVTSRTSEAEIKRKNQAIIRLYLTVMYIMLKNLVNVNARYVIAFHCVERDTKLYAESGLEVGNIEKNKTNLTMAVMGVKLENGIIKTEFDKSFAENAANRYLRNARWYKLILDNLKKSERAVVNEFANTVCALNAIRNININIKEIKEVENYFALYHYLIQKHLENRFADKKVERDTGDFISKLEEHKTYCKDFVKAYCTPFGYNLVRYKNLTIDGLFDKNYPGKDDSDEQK
Assay: crRNA (strand 1, pre-loaded); Mg2+; 40 mM Tris-HCl pH 7.5, 150 mM NaCl, 6 mM MgCl2, 1 mM DTT, 0.1% Tween-20, 0.2 mg/ml BSA; 25 C; 10 min per concentration, then washed
Settings: tags: His6-TwinStrep-SUMO cleaved; N-terminal SNAP kept (SNAP-Surface 488); label: 3' end held by stalled T7 RNA polymerase

B1: target 2 MT 5'PFS GUA 3'PFS CAG (mixed)
RNA 1: CACCCGUGCAAAAUUGCAGGGGUCUAAAACCUUCUCCAAAUUGUUUCAUCCU
RNA 2: GGGAAUGGAUCCACAUCUACGAAUUCGUAAGGAUGAAACAAUUUGGAGAAGCAGAGAUCGGAAGAGCACACGU
- Kd: 9.6 ± 1.1 nM

B2: target 2 MT 5'PFS CGA 3'PFS CUU (mixed)
RNA 1: CACCCGUGCAAAAUUGCAGGGGUCUAAAACCUUCUCCAAAUUGUUUCAUCCU
RNA 2: GGGAAUGGAUCCACAUCUACGAAUUCCGAAGGAUGAAACAAUUUGGAGAAGCUUAGAUCGGAAGAGCACACGU
- Kd: 8.3 ± 1.1 nM

B3: target 2 MT 5'PFS CAG 3'PFS CAG (mixed)
RNA 1: CACCCGUGCAAAAUUGCAGGGGUCUAAAACCUUCUCCAAAUUGUUUCAUCCU
RNA 2: GGGAAUGGAUCCACAUCUACGAAUUCCAGAGGAUGAAACAAUUUGGAGAAGCAGAGAUCGGAAGAGCACACGU
- Kd: 7.2 ± 1.2 nM

B4: target 2 MT 5'PFS UUC 3'PFS ACA (mixed)
RNA 1: CACCCGUGCAAAAUUGCAGGGGUCUAAAACCUUCUCCAAAUUGUUUCAUCCU
RNA 2: GGGAAUGGAUCCACAUCUACGAAUUCUUCAGGAUGAAACAAUUUGGAGAAGACAAGAUCGGAAGAGCACACGU
- Kd: ~21 nM

B5: target 2 MT 5'PFS ACC 3'PFS UCC (mixed)
RNA 1: CACCCGUGCAAAAUUGCAGGGGUCUAAAACCUUCUCCAAAUUGUUUCAUCCU
RNA 2: GGGAAUGGAUCCACAUCUACGAAUUCACCAGGAUGAAACAAUUUGGAGAAGUCCAGAUCGGAAGAGCACACGU
- Kd: 5.5 ± 0.6 nM

B6: target 2 MT 5'PFS GUA 3'PFS UGU (mixed)
RNA 1: CACCCGUGCAAAAUUGCAGGGGUCUAAAACCUUCUCCAAAUUGUUUCAUCCU
RNA 2: GGGAAUGGAUCCACAUCUACGAAUUCGUAAGGAUGAAACAAUUUGGAGAAGUGUAGAUCGGAAGAGCACACGU
- Kd: 15.2 ± 1.2 nM

B7: target 2 MT 5'PFS UAG 3'PFS UCC (mixed)
RNA 1: CACCCGUGCAAAAUUGCAGGGGUCUAAAACCUUCUCCAAAUUGUUUCAUCCU
RNA 2: GGGAAUGGAUCCACAUCUACGAAUUCUAGAGGAUGAAACAAUUUGGAGAAGUCCAGAUCGGAAGAGCACACGU
- Kd: 7.9 ± 0.8 nM

B8: target 2 MT 5'PFS CAG 3'PFS CAC (mixed)
RNA 1: CACCCGUGCAAAAUUGCAGGGGUCUAAAACCUUCUCCAAAUUGUUUCAUCCU
RNA 2: GGGAAUGGAUCCACAUCUACGAAUUCCAGAGGAUGAAACAAUUUGGAGAAGCACAGAUCGGAAGAGCACACGU
- Kd: 5.6 ± 1.6 nM

B9: target 2 MT 5'PFS UUC 3'PFS ACC (mixed)
RNA 1: CACCCGUGCAAAAUUGCAGGGGUCUAAAACCUUCUCCAAAUUGUUUCAUCCU
RNA 2: GGGAAUGGAUCCACAUCUACGAAUUCUUCAGGAUGAAACAAUUUGGAGAAGACCAGAUCGGAAGAGCACACGU
- Kd: ~16 nM

B10: target 2 MT 5'PFS CGA 3'PFS CUA (mixed)
RNA 1: CACCCGUGCAAAAUUGCAGGGGUCUAAAACCUUCUCCAAAUUGUUUCAUCCU
RNA 2: GGGAAUGGAUCCACAUCUACGAAUUCCGAAGGAUGAAACAAUUUGGAGAAGCUAAGAUCGGAAGAGCACACGU
- Kd: 8.3 ± 1.3 nM

B11: target 2 MT 5'PFS GGA 3'PFS UAC (mixed)
RNA 1: CACCCGUGCAAAAUUGCAGGGGUCUAAAACCUUCUCCAAAUUGUUUCAUCCU
RNA 2: GGGAAUGGAUCCACAUCUACGAAUUCGGAAGGAUGAAACAAUUUGGAGAAGUACAGAUCGGAAGAGCACACGU
- Kd: 16.1 ± 2.7 nM

B12: target 2 MT 5'PFS GAG 3'PFS AGU (mixed)
RNA 1: CACCCGUGCAAAAUUGCAGGGGUCUAAAACCUUCUCCAAAUUGUUUCAUCCU
RNA 2: GGGAAUGGAUCCACAUCUACGAAUUCGAGAGGAUGAAACAAUUUGGAGAAGAGUAGAUCGGAAGAGCACACGU
- Kd: 9.1 ± 1.1 nM

B13: target 2 MT 5'PFS GAG 3'PFS CGA (mixed)
RNA 1: CACCCGUGCAAAAUUGCAGGGGUCUAAAACCUUCUCCAAAUUGUUUCAUCCU
RNA 2: GGGAAUGGAUCCACAUCUACGAAUUCGAGAGGAUGAAACAAUUUGGAGAAGCGAAGAUCGGAAGAGCACACGU
- Kd: 4.9 ± 0.4 nM

B14: target 2 MT 5'PFS UUG 3'PFS CGC (mixed)
RNA 1: CACCCGUGCAAAAUUGCAGGGGUCUAAAACCUUCUCCAAAUUGUUUCAUCCU
RNA 2: GGGAAUGGAUCCACAUCUACGAAUUCUUGAGGAUGAAACAAUUUGGAGAAGCGCAGAUCGGAAGAGCACACGU
- Kd: 15.9 ± 1.5 nM

B15: target 2 MT 5'PFS GAG 3'PFS CGG (mixed)
RNA 1: CACCCGUGCAAAAUUGCAGGGGUCUAAAACCUUCUCCAAAUUGUUUCAUCCU
RNA 2: GGGAAUGGAUCCACAUCUACGAAUUCGAGAGGAUGAAACAAUUUGGAGAAGCGGAGAUCGGAAGAGCACACGU
- Kd: 5.8 ± 0.4 nM

B16: target 2 MT 5'PFS GAG 3'PFS CGU (mixed)
RNA 1: CACCCGUGCAAAAUUGCAGGGGUCUAAAACCUUCUCCAAAUUGUUUCAUCCU
RNA 2: GGGAAUGGAUCCACAUCUACGAAUUCGAGAGGAUGAAACAAUUUGGAGAAGCGUAGAUCGGAAGAGCACACGU
- Kd: 9.4 ± 0.9 nM

B17: target 2 MT 5'PFS CGA 3'PFS UUA (mixed)
RNA 1: CACCCGUGCAAAAUUGCAGGGGUCUAAAACCUUCUCCAAAUUGUUUCAUCCU
RNA 2: GGGAAUGGAUCCACAUCUACGAAUUCCGAAGGAUGAAACAAUUUGGAGAAGUUAAGAUCGGAAGAGCACACGU
- Kd: 9 ± 1.7 nM

B18: target 2 MT 5'PFS CGA 3'PFS UUU (mixed)
RNA 1: CACCCGUGCAAAAUUGCAGGGGUCUAAAACCUUCUCCAAAUUGUUUCAUCCU
RNA 2: GGGAAUGGAUCCACAUCUACGAAUUCCGAAGGAUGAAACAAUUUGGAGAAGUUUAGAUCGGAAGAGCACACGU
- Kd: 9.2 ± 1.7 nM

B19: target 2 MT 5'PFS GAG 3'PFS AGC (mixed)
RNA 1: CACCCGUGCAAAAUUGCAGGGGUCUAAAACCUUCUCCAAAUUGUUUCAUCCU
RNA 2: GGGAAUGGAUCCACAUCUACGAAUUCGAGAGGAUGAAACAAUUUGGAGAAGAGCAGAUCGGAAGAGCACACGU
- Kd: 5.7 ± 0.7 nM

B20: target 2 MT 5'PFS UUG 3'PFS CGA (mixed)
RNA 1: CACCCGUGCAAAAUUGCAGGGGUCUAAAACCUUCUCCAAAUUGUUUCAUCCU
RNA 2: GGGAAUGGAUCCACAUCUACGAAUUCUUGAGGAUGAAACAAUUUGGAGAAGCGAAGAUCGGAAGAGCACACGU
- Kd: 11.4 ± 1 nM

B21: target 2 MT 5'PFS CAG 3'PFS CAA (mixed)
RNA 1: CACCCGUGCAAAAUUGCAGGGGUCUAAAACCUUCUCCAAAUUGUUUCAUCCU
RNA 2: GGGAAUGGAUCCACAUCUACGAAUUCCAGAGGAUGAAACAAUUUGGAGAAGCAAAGAUCGGAAGAGCACACGU
- Kd: 6.6 ± 2.7 nM

B22: target 2 MT 5'PFS GGA 3'PFS UAA (mixed)
RNA 1: CACCCGUGCAAAAUUGCAGGGGUCUAAAACCUUCUCCAAAUUGUUUCAUCCU
RNA 2: GGGAAUGGAUCCACAUCUACGAAUUCGGAAGGAUGAAACAAUUUGGAGAAGUAAAGAUCGGAAGAGCACACGU
- Kd: 5.6 ± 0.9 nM

B23: target 2 MT 5'PFS GGA 3'PFS UAG (mixed)
RNA 1: CACCCGUGCAAAAUUGCAGGGGUCUAAAACCUUCUCCAAAUUGUUUCAUCCU
RNA 2: GGGAAUGGAUCCACAUCUACGAAUUCGGAAGGAUGAAACAAUUUGGAGAAGUAGAGAUCGGAAGAGCACACGU
- Kd: 8.7 ± 0.7 nM

B24: target 2 MT 5'PFS GAG 3'PFS CGC (mixed)
RNA 1: CACCCGUGCAAAAUUGCAGGGGUCUAAAACCUUCUCCAAAUUGUUUCAUCCU
RNA 2: GGGAAUGGAUCCACAUCUACGAAUUCGAGAGGAUGAAACAAUUUGGAGAAGCGCAGAUCGGAAGAGCACACGU
- Kd: 6.4 ± 0.4 nM

B25: target 2 MT 5'PFS GAG 3'PFS AGA (mixed)
RNA 1: CACCCGUGCAAAAUUGCAGGGGUCUAAAACCUUCUCCAAAUUGUUUCAUCCU
RNA 2: GGGAAUGGAUCCACAUCUACGAAUUCGAGAGGAUGAAACAAUUUGGAGAAGAGAAGAUCGGAAGAGCACACGU
- Kd: 4.9 ± 0.5 nM

B26: target 1 G5A,A20C (mixed)
RNA 1: CACCCGUGCAAAAAUGCAGGGGUCUAAAACUGAGCGGAUAACCUCUCUAUGG
RNA 2: GGGAAUGGAUCCACAUCUACGAAUUCGUACCCUAGAGAGGUUAUCCACUCACCGAGAUCGGAAGAGCACACGU
- Kd: 88 ± 13 nM

B27: target 1 insU 3' of 12,insU 3' of 12 (mixed)
RNA 1: CACCCGUGCAAAAAUGCAGGGGUCUAAAACUGAGCGGAUAACCUCUCUAUGG
RNA 2: GGGAAUGGAUCCACAUCUACGAAUUCGUACCAUAGAGAGGUUUUAUCCGCUCACCGAGAUCGGAAGAGCACACGU
- Kd: 10.1 ± 0.8 nM

B28: target 1 A14U,G15A (mixed)
RNA 1: CACCCGUGCAAAAAUGCAGGGGUCUAAAACUGAGCGGAUAACCUCUCUAUGG
RNA 2: GGGAAUGGAUCCACAUCUACGAAUUCGUACCAUAGAAUGGUUAUCCGCUCACCGAGAUCGGAAGAGCACACGU
- Kd: 64 ± 10 nM
